Experiment: yeast display, Sf9 membrane polyspecificity reagent, FACS + sequencing; frameworks hold sequencing errors
Summary of the method: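 Genes from sorted yeast were amplified by colony PCR, read by MiSeq 2 × 250 sequencing and filtered on CDR length. These cells carried a synthetic nanobody library in Saccharomyces cerevisiae BJ5465 and were sorted by FACS into low and high (top ~1%) gates on anti-HA and streptavidin fluorescence. Polyreactivity is labelled according to the gate of origin.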

| Sequence | polyreactivity (PSR sort gate) |
| --- | --- |
| QVQLVESGGGLVQAGGSLRLSCAASGSTWWYDMGSYRQAPGKERELVASISSGDSTNYADSVKGRFTISRDNAKNTVYLQMNSLKPEDTAVYYCAADFNFGFVWGDDYDYWGQGTQVTVSS | low polyreactivity |
| QVQLVESGGGLVQAGGSLSLSCAASGSTFYGYAMGWYRQAPGKERELVAAITRSGGSTYYADSVKGRFTISRDNAKNTVYLQMNSLTPEDTAVYYCAAERLYYYVYWGQGTQVTVSS | low polyreactivity |
| QVQLVESGGGLVQAGGSLRLRSAASGGTIARYAMGWYRQATGKERELVAAITKSRDLTYYADSVKGRFTISRDSAKNTVYLQMNSLKPEDTAVYYCARPPSTGYQGGYDYWGQGTQVTVSS | high polyreactivity |
| QVQLVESGGGLVQAGGSLRLSCAASGSIFYWNAMGWYRQAPGKERELVAAISYNGGSTYYADSVKGRFTISRDNAKNTVYLQMNSLKPEDTAVYYCARLDSAAEPRQYDYWGQGTQVTVSS | high polyreactivity |
| QVQLVESGGGLVQAGGSLRLSCAASGRIFPPNAMGWYRQAPGKERELVAAITRGGSTNYADSVKGRFTISRDNAKNTVYLQMNSLKPEDTAVYYCAARGLRRQAPFYYWGQGTQVTVSS | high polyreactivity |
| QVQLVESGGGLVQAGGSLRLSCAASGITFLNYAMGWYRQAPGKERELVAAISWSGGRTYYADSVKGRFTISRDKGKNTVYLQMNSLKPEDTAVYYCAADRGVNSYGYWGQGTQVTVSS | high polyreactivity |
| QVQLVESGGGLVQAGGSLRLSCAASGRIFVPYAMGWYRQAPGKERELVAGISWSGGSTYYADSVKGRFTISRDNAKNTVYLQMNNLKPEDTPVYYCAAAKRRRPFDYWGQGTQVTVSS | high polyreactivity |
| QVQLVESGGGLVHAGGSLRLSSAASGRISLSNAMRWYTQAPGKETEFVAAITKRSDRTYYADSVKGRFTNSRDNAKNPVYLQMNSLKPEETAVYYCGAKPLFGTRDDYWGQGTQVTVSS | low polyreactivity |
| QVQLVESGGGLVQAGGSLRLSCAASGITFIVNAMGWYRQAPGKERELVARITTSGGSTSYADSVKGRFTISRDNAKYTVYLQMYSLKPEDSAVYYCAADRGGYYSEYDYWGQGTQVTVSS | low polyreactivity |
| QVQLVESGGGLVQAGGSLRLSCAASGRIFVTNAMGWYRQAPGKERELVASISSGGRTHYADSVKGRFTISRDNAKNTVYLQMNSLKPEDTAVYYCAKPPLYYYPALRGEEFYYWGQGTQVTVSS | low polyreactivity |
| QVQLVESGGGLVQAGGSLRLSCAASGFTFVSYAMGWYRQAPGKERELVAAISKRGGSTSYADSVKGRFTISRDNAKNTVYLQMNSLKPEDTAVYYCNKRSYAWSPHVDYWGQGTQVTVSS | high polyreactivity |
| QVQLVESGGGLVQAGGSLRLCCAASGSIFKYNAMGWYRQAPGKERELVAAITWSGGSTYYADSVKGRFTISRDNAKNTVYLQMNSLKPEDTAVYYCAAVYYYASRTSKQPYYHWGQGTQVSVSS | high polyreactivity |
| QVQLVESAGDLVQAGRTLRFSCAPSGSIFKPNAMGWYRQAPGKERELVDDISRSGTSTYYADSVKGRFTISRDIAKNTVYLQMNSLKPEDTAVFNCATRYSGDYGYWGQGTQVTVSS | high polyreactivity |
| QVQLVESGGGLVQAGGSLRLSCAASGRTSFWNAMGWYRQAPGKERELVSAISASVGRTYYADSVKGRFTISRDNAKNTVYLQMNSLKPEDTAVYYSAKVYHAGTGYPSLGLDYWGQGTQVTVSS | low polyreactivity |
| QVQLQESGGGLVQAGGSLRLSCAASGSISAVGAMGWYRQAPGKEREFAASVNWGTNTNYADSVKGRFTISRDNAKNTLYLQMNSLKPEDTAVYYCAVLPDWETRHEYWGHGTQVTVSS | low polyreactivity |
| QVQLVESGGGLVQAGGSLRLSCAASGNIFYVYVMGGYRQAPGKERELVASITSGASTYYADSVKGRFTISRDNAKNTVYLQMNSLKPDDTAVYYCAAEALGGAGDYSTLYIYDYWGQGTQVTVSS | low polyreactivity |
| QVQLVESGGGLVQAGGSLRLSCAASGITFLDYAMGWYRQAPGKERELVADISTSGGSTYYADSVKGRFTISRDNAKNTVYLQMNSLKPEDTAVYYCAADTFDFWWSLGSMDYWGQGTQVTVSS | high polyreactivity |
| QVQLVESGGGLVQAGGSLRLSCAASGLIFYVYARGWYRQAPGKERELVAAIRYRGGTTHYADSVKGRFTISRDNAKNTVYLQMNSLKPEDTAVYYCAADGYVYRSGRRYDYWGQGTQVTVSS | high polyreactivity |
| QVQLVESGGGLVQAGGSLRLSCAASGSIFVGYDMGWYRQAPGKERELVASINGGDSTNYADSVKGRFTISRDNAKNTVYLQMNSLKPEDTAVYYCAKDVTYTDEYDYWGQGTQVTVSS | low polyreactivity |
| QVQLVESGGGLVQAGGSLRLSCAASGIIFPYNVMGWYRQAPGKERELVAAITRGAASTYYADSVKGRFTISRDNAKNTVYLQMNSLKPEDTAVYYCATDPVSTRGSDYWGQGTQVTVSS | high polyreactivity |
| QVQLVESGGGLVQAGGSLRLSCAASGSTLDIYAMGWYRQAPGKERELVAAITSGGSTNYADSVKGRFTISRDNAKTTVYLQLNSLKPEDTAVYSCNARYFRGYDYWGQGTQVSVSS | high polyreactivity |
| QVQLVESGGGLVQAGGSLRLSCAASGRIFAVNAMGWYRQAPGKERELVAAINGGGSTNYADSVKGRFTISRDNAKNTVYLQMNSLKPEDTAVYYCAADVGWRSQTRGYYWGQGTQVTVSS | high polyreactivity |

| Sequence | polyreactivity (PSR sort gate) |
| --- | --- |
| QVQLVESGGGLVQAGCSLRLSCAASGRIITRYPMGWYRQAPGKERELVAAISYGGGGTYYADSVKGRFTISRDNAKNTVYLQMNSLKPDDTAVYYCATDDPLSQINEQGMDYWGQGTQVTVSS | low polyreactivity |
| QEQLQESGDGLVQAGGSLRLSSAASGTIFSDYGMGGYRQAPGKERELLAGISDGCNTNYTDSVKGRFTISRDNAHRVSADEQPETGGYRGVLLRGSERWLLFYVYWGQGTQGTVSS | high polyreactivity |
| QVQLVESGVGLVQAARSLRLSCAASGRTFGSYAMGWYRQAPGKEREFVAGISYGGGRTYYADSVKGRFTISRDTAKNTVYLQMNSLKPADTAVYYCAADGVYRYNYPYLYTYDYWGQGTQVTVSS | low polyreactivity |
| QVQLVESGGGLVQAGGSLRLSCAASGSTFIYYAMGWNRQAPGKERELVDSISRSGGSTYYADSVKGRFTISRDNAKNTVYLQMNSLKPEDTAVYYCARAYRSSFNYWGQGTQVTVSS | high polyreactivity |
| QVQLVESGGGLVQAGGSLRLSCAASGRIFGQYAMGWYRQAPGKERELVAAITYSTGSTSYADSVKGRFTISRDNAKNTVYLQMNSLKPEDTAVYYCAAGGGRWYYPKRGSPYGFYYWGLGTQVTVSS | high polyreactivity |
| QVQLVESGGGLVQAGGSLRLSCAASGSIFDTYAMGWYRQAPGKERELVAAITWSGSSTYYADSVKGRFTISRDNAKNTVYLQMNSLKPEDTAVYYCAKDYYVEVTTEYDYWGQGTQVTVSS | high polyreactivity |
| QVQLVESGGGLVQAGGSLRLTCAASGRTFTVYAMGGYRQAPGKEREFVAAITERGGSTYYADSVKGRFTISRDNAKNTVYLQMNSLKPEDTAVYYCAAVYYWRPGWYVRFDYWGQGTQVTVSS | low polyreactivity |
| QVQLVESGGGLVQAGGSLRLSCAASGSIFVYYALGWYRQAPGKERELVAAISSSGDTTYYADSVKGRFTISRDNAKNTVYLQMNSLKPEDTAVYYCNTRNDRASQRWVSREMDYWGQGTQVTVSS | high polyreactivity |
| QVQLVESGGGLVQAGGSLRLSCAATGRTFGSNAMGWYRQAPGKERELVAAISLRGGRTYYADSVKGRFTISRDTAKNTVYLQMNSLKPEDTAVYYCNAVHYLYGARSRLTYDYWGQGTQVTVSS | high polyreactivity |
| QVQLVESGGGLVQAGGSLRLSCAASGLIFYLYAMGWYRQAPGKEREFVAGINWSGGNTYADSVKGRFTISRDNAKNTVYLQLNSLKPEDTAVYYCAADSLIYTHPYQYDYWGQGTQVTVSS | low polyreactivity |
| QVQLVESGGGLVQAGGSLRLSFAASGFIFWNYPMGWYRQAPGKERELVAAISKRGGSTYYADSVKGRFTISRDNAKHNVYLQMNSLKPEDTAVYYCNAGRTYTALNGDYWGQGTQVTVSS | high polyreactivity |
| QVQLVESGGGLVQAGGSLRLSCAASGLTLYKNGMGWYRQAPGKERELVARITSGGRTYYADSVKGRFTISRDNAKNTVYLQMNSLKPEDTAVYYCNAVKSYASLCAGFYYWGQGTQVTVSS | high polyreactivity |
| QDQLVESGGGLVQAGGSLRLSCAASGITIYRYVMGCSRQAPGKEREFVASITQSTGSTHYADSVKGRFTISRDNAKNTVYLQMNSLKPEDTAVYYCNAQKIVYYWVTLFPYYYWGQGTQVTVSS | low polyreactivity |
| QVQLVDSGGGLVQAGGSLRLSCAASGSILGQNAMGGNRQAPGKERELVAAITRGGSSTYYADSVKGRFTISRDNAKNTVYLQMNSLKPEDTAVYYCAAYSSIGYRQISGYYWGEGTQVTVSS | low polyreactivity |
| QVQLVESGGGLVQAGGSLRLSCAASGSIYARNAMGWYRQAPGKERELVAAIRYSGGSTYYADSVKGRFTISRDNAKNTVYLQMNSLKPEDTAVYYCAARWGVFGYYYWGQGTQVTVSS | high polyreactivity |
| QVQLVESGGGLVQAGGSLRLSCAAYAMGWYRQAPGKERELVAAMSSSGGSTYYADSVKGRFTISRDNAKTTVYLQMTSLKPEDTAVYYCARDPDTYFFPPTGYYTSGFDSWGQGTQVTVSS | low polyreactivity |
| QVQLVESGGGLVQAGGSLRLSCAASGYIFPPYAMGWYRQAPGKERELVATMTGIGGSTDYADSVKGRFTISRDNAKNTVYLQMNSLKPEDTAVYYCAARRDGYGTHYDYWGQGTQVTVSS | low polyreactivity |
| QVQLVESGGGLVQAGGSLRLSCAASGIFDYYAMGWYRQAPGKERELVAAINSSGGSTYYADSVKGRFTISRDNAKNTVYLQMNSLKPEDTAVYYCAAGRYAYLFNYWGQGTQVTVSS | high polyreactivity |
| QVQLVESGGGVVQAGGSLRLSCAASGSTFLPYAMGWYRQAPGKERELVAAITWRTGSTYYADSVKGRFTSSRDNAQNTVYLQMNSLKPEDTAVYYCNAKQRGKFDYWGQGTQVTVSS | low polyreactivity |
| QVQLVESGGGLVQAGGSLRLSCAASGSTFTLNAMGWYRQAPGKERELVADISWSSGRTYYADSVKGRFTISRDTAKNTVYLQMNSLKPEDTAVYYCATEDFWNVKFYAYYPEFDYWGQGTQVTVSS | low polyreactivity |
| QVQLVESGGGLVQAGGSLRLSCAASGSTFWYYAMGWYRQAPGKEREFVAAITTSAGRTYYADSVKGRFTISRDNAKNTVYLQMNSLKPEDTAVYYCAAEPRQYWEYNYWGQGTQVTVSS | high polyreactivity |
